Data set [1] addresses Escherichia coli SecA labeled with Cy5 (E. coli) (UniProt P10408). The experiment in a line: MST; Monolith NT.115; unlabeled protein (1 nM to 5 μM) titrated into 25 nM Cy5-labeled protein, mixed in 300 mM KCl, then diluted into low salt buffer (25 mM HEPES-KOH pH 7.5, 30 mM KCl, 2 mM MgCl2, 50 mM arginine); Hill fit, apparent Kd; dimer to monomers.
The target in data set [2] is Mycobacterium tuberculosis SecA1 (unlabeled) (Mycobacterium tuberculosis strain H37Rv) (UniProt P9WGP5). As to the kind of experiment: SEC; Superdex 200 10/300 GL, 0.5 ml/min, 20 mM HEPES-KOH pH 7.5, 2 mM MgCl2, 50 mM arginine, low salt (30 mM KCl); protein 2-5 mg/ml; mass estimated with protein standards.
Data set [3] deals with the molecule itself. Described as above.

As usually defined, the stoichiometry N is a count of units in the complex or per binding partner.

Take “Escherichia coli SecA (unlabeled) (from UniProt P10408 1-901) (natural protein)”: the Kd in data set [1] stood at 31 nM.

Turning to “Mycobacterium tuberculosis SecA1 (unlabeled) (from UniProt P9WGP5 1-949) (natural protein)”, the stoichiometry N in data set [2] is 2.

B1: Mycobacterium tuberculosis SecA2 (unlabeled) (natural protein)
chain: MVPKTTRAQPGRLSSRFWRLLGASTEKNRSRSLADVTASAEYDKEAADLSDEKLRKAAGLLNLDDLAESADIPQFLAIAREAAERRTGLRPFDVQLLGALRMLAGDVIEMATGEGKTLAGAIAAAGYALAGRHVHVVTINDYLARRDAEWMGPLLDAMGLTVGWITADSTPDERRTAYDRDVTYASVNEIGFDVLRDQLVTDVNDLVSPNPDVALIDEADSVLVDEALVPLVLAGTTHRETPRLEIIRLVAELVGDKDADEYFATDSDNRNVHLTEHGARKVEKALGGIDLYSEEHVGTTLTEVNVALHAHVLLQRDVHYIVRDDAVHLINASRGRIAQLQRWPDGLQAAVEAKEGIETTETGEVLDTITVQALINRYATVCGMTGTALAAGEQLRQFYQLGVSPIPPNKPNIREDEADRVYITTAAKNDGIVEHITEVHQRGQPVLVGTRDVAESEELHERLVRRGVPAVVLNAKNDAEEARVIAEAGKYGAVTVSTQMAGRGTDIRLGGSDEADHDRVAELGGLHVVGTGRHHTERLDNQLRGRAGRQGDPGSSVFFSSWEDDVVAANLDHNKLPMATDENGRIVSPRTGSLLDHAQRVAEGRLLDVHANTWRYNQLIAQQRAIIVERRNTLLRTVTAREELAELAPKRYEELSDKVSEERLETICRQIMLYHLDRGWADHLAYLADIRESIHLRALGRQNPLDEFHRMAVDAFASLAADAIEAAQQTFETANVLDHEPGLDLSKLARPTSTWTYMVNDNPLSDDTLSALSLPGVFR
notes: No tag; molecular mass 85 kDa on SDS-PAGE; also called PIP152
On to B1, for which the “stoichiometry N” value in data set [3] was 2.

(Values after paper PMC4457860, “In Vitro Interaction of the Housekeeping SecA1 with the Accessory SecA2 Protein of Mycobacterium tuberculosis” (PLoS ONE, 2015).)
